Reference: the RNAGym collection of RNA variant scans (doi:10.7554/elife.90254)

B1: LINE1-mini (parent)
chain: GGCAGAGCUCAACACAGCGUGGCAAAGUGGCUGUGGCUAGACUGCC

Variants of: B1
Experiment: self-cleavage, relative activity (ratio to wild type); higher = more cleavage; in vitro, sequencing; the parent is a self-cleaving ribozyme

Compared with GGCAGAGCUCAACAGAGCGUGGCAAAGUCGCUGUGGCUAGACUGCC [C15G G29C], GGCAGAGCUCAACACAGCGUGGCCAAGUGGCUGUGGCUAGACAGCC [A24C U43A] is lower in self-cleavage: 0.1 for the first, 0.02 for the second.

Going from GGCAGAGCUCAACACUGCGUGGCAAAGUGGCUGUGGCUUGACUGCC [A16U A39U] to GGCAGAGCUCAAGACAGCGUGGCAAAGUGGCUGUGGCUAGUCUGCC [C13G A41U], the self-cleavage rises from 0.08 to 0.17.

Going from GGCAGAACUCAACACAGCGUGGCAAAGUGGCUAUGGCUAGACUGCC [G7A G33A] to GGCAGAGCUCAACACAGGGUGGCAAAGUGGCUGUGGCUAGACCGCC [C18G U43C], the self-cleavage falls from 0.29 to 0.06.

First: GGCAGAGCUCAACACAGCGUGUCAAAGUGGAUGUGGCUAGACUGCC [G22U C31A]
Second: GGCAGAGCUCGACACAGCGUGGCACAGUGGCUGUGGCUAGACUGCC [A11G A25C]
The self-cleavage of the first is higher: 0.2 for the first, 0.03 for the second.

First: GGCAGAGCUCAACACUGCGUGGCAAAGUGGCUGUGGCCAGACUGCC [A16U U38C]
Second: GGCAGAGCUCAACACAACGUCGCAAAGUGGCUGUGGCUAGACUGCC [G17A G21C]
The self-cleavage of the first is lower: 0.04 for the first, 0.74 for the second.

Compared with GGCAGAGCUCAACACAGCGUGGCAAAGUGUCUGUGGCUACACUGCC [G30U G40C], GGCAGAGAUCAACACAGCGUGGCAAAGUGGCUGUGACUAGACUGCC [C8A G36A] is higher in self-cleavage: 0.09 for the first, 0.65 for the second.

First: GGCAGAGCUCCAGACAGCGUGGCAAAGUGGCUGUGGCUAGACUGCC [A11C C13G]
Second: GGCAGAGCUCAACACGGCGUUGCAAAGUGGCUGUGGCUAGACUGCC [A16G G21U]
The self-cleavage of the first is lower: 0.03 for the first, 0.48 for the second.

First: GGCAGAGCUCAACACAGCGUGGGAAAGUGGCUGUGGGUAGACUGCC [C23G C37G]
Second: GGCAGAGUACAACACAGCGUGGCAAAGUGGCUGUGGCUAGACUGCC [C8U U9A]
The self-cleavage of the first is lower: 0.01 for the first, 0.32 for the second.

First: GGCAGAGCUCAACACUGCAUGGCAAAGUGGCUGUGGCUAGACUGCC [A16U G19A]
Second: GGCAGAGCUCAACCCAGCGUGGCAAAGUGGCUUUGGCUAGACUGCC [A14C G33U]
The self-cleavage of the first is higher: 0.19 for the first, 0.05 for the second.

Going from GGCAGAGCCCAACACAGCGGGGCAAAGUGGCUGUGGCUAGACUGCC [U9C U20G] to GGCAGAGCUCAACACAGCGUGGCAUAGUGGCUGUGGCUAGAAUGCC [A25U C42A], the self-cleavage rises from 0.03 to 0.24.

Going from GGCAGAGCUCAGCACAGCGUGGCAAAGUGGCUGUGGCUAGAAUGCC [A12G C42A] to GGCAGAGCUCAACACAGCGUGGCAAAGUGGGUCUGGCUAGACUGCC [C31G G33C], the self-cleavage falls from 0.05 to 0.03.

Going from GGCAGAGCUCAACACAGCGUGGCAAAGUGACUGUGACUAGACUGCC [G30A G36A] to GGCAGAGCUUAACACAGCGUGGCAAAGUGGCUGUGGCUAGACAGCC [C10U U43A], the self-cleavage falls from 0.43 to 0.04.

Going from GGCAGAGGUCAACACAGCGUGGCAAAGUGGCUGUGGCUAGUCUGCC [C8G A41U] to GGAAGAGCUCAACGCAGCGUGGCAAAGUGGCUGUGGCUAGACUGCC [C3A A14G], the self-cleavage rises from 0.25 to 0.61.

Going from GGCAGAGCUCAACACAGCGUGGCAAAGUGGCUGUGCCGAGACUGCC [G36C U38G] to GGCAGAGCUCAACACGGCGUGGUAAAGUGGCUGUGGCUAGACUGCC [A16G C23U], the self-cleavage rises from 0.02 to 0.82.

First: GGCAGAGCUCAACACAGCGUGGCUAAGUGGCUGUGGCAAGACUGCC [A24U U38A]
Second: GGCAGAGCUCAACACAUAGUGGCAAAGUGGCUGUGGCUAGACUGCC [G17U C18A]
The self-cleavage of the first is higher: 0.34 for the first, 0.18 for the second.

GGCAGAGCUCAACACAGCGUGGCAAAGUGGCUCUGGCUCGACUGCC [G33C A39C] and GGCAGAGCUCAACACAGCGUGGCAAAGGGGCUGUGGCUAUACUGCC [U28G G40U] are the same in self-cleavage: 0.09 for the first, 0.09 for the second.

Going from GGCAGAGCUCAACACAGCGUGGCAAAGUGUCUGUGGCUAGACUCCC [G30U G44C] to GGCAGAGCUCAACACAGCGUGGCAAAGUGGCUGUGGCUAGCCGGCC [A41C U43G], the self-cleavage falls from 0.16 to 0.06.

Compared with GGUAAAGCUCAACACAGCGUGGCAAAGUGGCUGUGGCUAGACUGCC [C3U G5A], GGCAGAGCUCAAUACCGCGUGGCAAAGUGGCUGUGGCUAGACUGCC [C13U A16C] is lower in self-cleavage: 0.21 for the first, 0.1 for the second.

First: GGCAGACCUCAACACAGCGUGGCAAAGCGGCUGUGGCUAGACUGCC [G7C U28C]
Second: GGCAGAGCUCAACCCAGCGUCGCAAAGUGGCUGUGGCUAGACUGCC [A14C G21C]
The self-cleavage of the first is higher: 0.1 for the first, 0.05 for the second.

Compared with GGCAGAGCUCAACACAGCGUGGCAAAGUCGCUGUGGCUAGACUGCU [G29C C46U], GGCACAGCUCCACACAGCGUGGCAAAGUGGCUGUGGCUAGACUGCC [G5C A11C] is lower in self-cleavage: 0.6 for the first, 0.04 for the second.

Compared with GGCAGAGCUCAACACUGCGUGGCAAAGUGGCUGUGCCUAGACUGCC [A16U G36C], GUCAGAGCUCAACACAGCGUGACAAAGUGGCUGUGGCUAGACUGCC [G2U G22A] is higher in self-cleavage: 0.07 for the first, 0.11 for the second.

First: GGCAGAGCUCAACACAGAGUUGCAAAGUGGCUGUGGCUAGACUGCC [C18A G21U]
Second: GGCAGAGCUCAACACAGGGUGGCAAAGUGGCUGAGGCUAGACUGCC [C18G U34A]
The self-cleavage of the first is higher: 0.77 for the first, 0.05 for the second.

First: GGCAGCGCUCAACACAGCGUGGCAAAGUCGCUGUGGCUAGACUGCC [A6C G29C]
Second: GGCAGAGCUCAACACAGCGUGACAAAGUGGCUGUCGCUAGACUGCC [G22A G35C]
The self-cleavage of the first is higher: 0.36 for the first, 0.12 for the second.

Going from GGCAGAGCUCAACACAGCGUGGCAAAGUGGCUGUGGCUAGACUGAC [C45A] to GGCAGAGCUCAACACAGCGUGGCAACGUGGCGGUGGCUAGACUGCC [A26C U32G], the self-cleavage falls from 0.64 to 0.13.

Compared with GGCAGAGCUCAACACAGCGUGGCAAUGUGGCUGUGUCUAGACUGCC [A26U G36U], GGCAGAGCUCAACACAGCGUGGCAAAGUGGCGGUGGCUAGACUACC [U32G G44A] is lower in self-cleavage: 0.09 for the first, 0.08 for the second.

Going from GGCAGAGCUCAAGACAGCGUCGCAAAGUGGCUGUGGCUAGACUGCC [C13G G21C] to GGCAGUGCUCAACAUAGCGUGGCAAAGUGGCUGUGGCUAGACUGCC [A6U C15U], the self-cleavage rises from 0.33 to 0.92.

First: GGCAGAGCUCAACACAGCGUGCCAAAGUGGCUGUGGCUGGACUGCC [G22C A39G]
Second: GGCAGAGCUCAACACCGCGUGGCAAAGUGGCUGUGGCUAGACUGCA [A16C C46A]
The self-cleavage of the first is lower: 0.09 for the first, 0.1 for the second.

Going from GGCAGAGCUCAACUCAGCGUGGCAAAGUGGCGGUGGCUAGACUGCC [A14U U32G] to GGCAGACCUCAACACAGCGUGGCAAAGUGGCUGUGGCUCGACUGCC [G7C A39C], the self-cleavage rises from 0.1 to 0.21.
